± gives the uncertainty stated by the source.
Tests used:
[1] = biological target: MMP-2 catalytic domain (UniProt P08253); assay: kcat/KM (M-1 s-1); higher = more efficient cleavage by the protease
Experimental: (§1)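 Catalytic efficiency (kcat/KM) of synthetic peptides carrying hexamer sequences taken from MMP-2/9 substrate phage selections. Cleavage was measured with recombinant human MMP-2 or MMP-9 catalytic domains (expressed in HEK293, APMA-activated, active-site titrated with GM6001), in triplicate, as described in the authors' ref 27.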

[2] = biological target: MMP-9 catalytic domain (UniProt P14780); assay: as above
Sequence of MMP-9 catalytic domain (P14780 whole entry, the tested form may be a part): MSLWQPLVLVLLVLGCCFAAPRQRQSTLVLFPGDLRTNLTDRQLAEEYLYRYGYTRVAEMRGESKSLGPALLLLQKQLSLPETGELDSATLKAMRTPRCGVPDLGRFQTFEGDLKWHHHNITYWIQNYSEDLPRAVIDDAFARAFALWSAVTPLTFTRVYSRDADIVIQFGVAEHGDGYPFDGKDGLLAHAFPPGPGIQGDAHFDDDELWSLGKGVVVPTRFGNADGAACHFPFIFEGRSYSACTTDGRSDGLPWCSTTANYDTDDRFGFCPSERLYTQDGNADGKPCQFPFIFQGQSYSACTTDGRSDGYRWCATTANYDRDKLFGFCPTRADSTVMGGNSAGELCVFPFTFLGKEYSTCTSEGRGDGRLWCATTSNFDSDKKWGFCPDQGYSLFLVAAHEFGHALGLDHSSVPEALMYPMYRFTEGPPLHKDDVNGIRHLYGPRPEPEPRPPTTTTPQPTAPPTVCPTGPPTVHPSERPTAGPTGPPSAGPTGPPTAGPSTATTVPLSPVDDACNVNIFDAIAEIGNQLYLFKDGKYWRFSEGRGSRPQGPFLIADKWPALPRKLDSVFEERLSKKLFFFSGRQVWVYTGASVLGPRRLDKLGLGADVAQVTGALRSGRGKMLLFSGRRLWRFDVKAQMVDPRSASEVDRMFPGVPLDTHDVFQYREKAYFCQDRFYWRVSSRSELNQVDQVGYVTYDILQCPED
Experimental: as §1

Sequence of MMP-2 catalytic domain (P08253 whole entry, looked up, the tested form may be a part): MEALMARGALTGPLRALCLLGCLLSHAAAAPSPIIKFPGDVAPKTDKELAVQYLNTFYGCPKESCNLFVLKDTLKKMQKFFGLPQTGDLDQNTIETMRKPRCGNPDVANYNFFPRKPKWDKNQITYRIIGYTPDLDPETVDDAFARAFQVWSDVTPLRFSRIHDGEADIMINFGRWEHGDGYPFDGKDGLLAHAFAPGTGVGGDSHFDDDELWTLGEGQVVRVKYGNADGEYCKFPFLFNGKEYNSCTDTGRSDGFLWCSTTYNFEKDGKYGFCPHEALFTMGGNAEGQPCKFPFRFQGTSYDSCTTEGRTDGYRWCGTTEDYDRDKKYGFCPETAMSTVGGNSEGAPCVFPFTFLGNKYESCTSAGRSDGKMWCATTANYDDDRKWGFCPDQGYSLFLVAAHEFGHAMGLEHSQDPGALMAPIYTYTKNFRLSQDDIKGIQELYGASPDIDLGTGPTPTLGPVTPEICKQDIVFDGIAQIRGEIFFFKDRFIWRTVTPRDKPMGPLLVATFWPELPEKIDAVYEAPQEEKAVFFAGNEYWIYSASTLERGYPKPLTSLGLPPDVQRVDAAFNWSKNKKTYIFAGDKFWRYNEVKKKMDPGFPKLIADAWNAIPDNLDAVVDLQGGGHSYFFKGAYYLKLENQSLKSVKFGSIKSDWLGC

Substance | kcat/KM [1] | kcat/KM [2]
AHNLSS | 16400 ± 620 | 9130 ± 640
APALWI | 34400 ± 940 | 33400 ± 740
ARHYKS | 15840 ± 130 | 25200 ± 1700
DGPVSF | 22200 ± 940 | 9530 ± 160
DRKPKA | 0 | 0
DSPQNL | 56400 ± 5200 | 37200 ± 4900
EGPAGL | 133000 ± 23000 | 55400 ± 2200
EPKPLL | 17700 ± 940 | 18900 ± 2200
EPVSLA | 7230 ± 110 | 2680 ± 64
ETPRPW | 19700 ± 660 | 7950 ± 380
EVPQAL | 47700 ± 3300 | 43200 ± 580
GEPFEL | 8910 ± 670 | 15500 ± 1100
GEPRGQ | 48000 ± 960 | 52200 ± 3000
GKPVSM | 69800 ± 46000 | 43700 ± 2600
GPAGIR | 181000 ± 96000 | 49830 ± 250
GPALSY | 12600 ± 210 | 17500 ± 760
GPARPY | 39700 ± 1900 | 26200 ± 1600
GPEGMK | 9100 ± 920 | 3600 ± 320
GPHGYK | 16400 ± 670 | 22100 ± 340
GPKGFR | 88300 ± 4700 | 34000 ± 2300
GPRGLK | 125000 ± 5300 | 71030 ± 710
GPRYLM | 30900 ± 11000 | 37800 ± 1800
GQPMNL | 51400 ± 4300 | 90600 ± 8800
HPVSMV | 32100 ± 18000 | 8720 ± 330
INPQGL | 114000 ± 14000 | 74100 ± 8200

Substance | kcat/KM [1] | kcat/KM [2]
IPLASL | 45700 ± 960 | 3730 ± 120
IRPKHF | 43200 ± 4200 | 97100 ± 7900
KPVNMT | 37600 ± 1600 | 84500 ± 2000
KSPLRQ | 6570 ± 450 | 34600 ± 230
KSPQAM | 62600 ± 6300 | 109000 ± 7600
KSPQSY | 46500 ± 1900 | 66100 ± 4700
KSPSRL | 182000 ± 45000 | 140000 ± 4400
KSPVGV | 15000 ± 600 | 18400 ± 730
LPKPLR | 42400 ± 1700 | 45900 ± 2300
LSPFGQ | 10000 ± 610 | 46100 ± 1800
MGPLGQ | 64800 ± 3000 | 73000 ± 9100
MRPVGH | 39300 ± 3400 | 31800 ± 2600
MSPANI | 188000 ± 23000 | 94700 ± 7900
NPMPIR | 22600 ± 6500 | 21200 ± 1300
NPQNIR | 35600 ± 560 | 20300 ± 620
NRPNNL | 88100 ± 10000 | 46200 ± 2100
NVARPM | 23900 ± 1000 | 27000 ± 2400
PAGVKA | 51800 ± 1300 | 15200 ± 610
PAPNSL | 87800 ± 14000 | 49000 ± 6600
PAQLHV | 26000 ± 290 | 7420 ± 290
PEGLQG | 33700 ± 1200 | 19900 ± 590
PEPAAL | 104000 ± 6400 | 89400 ± 9500
PGPAGQ | 154000 ± 23000 | 59800 ± 2100
PGPIGI | 22800 ± 800 | 38500 ± 1900
PGPIGW | 27000 ± 1000 | 28700 ± 860

Substance | kcat/KM [1] | kcat/KM [2]
PHGLAT | 16300 ± 2800 | 12500 ± 270
PHGYKG | 34600 ± 650 | 54200 ± 4300
PHNILS | 23800 ± 1000 | 51700 ± 1400
PHPRLL | 30700 ± 650 | 75300 ± 11000
PIQLQS | 10300 ± 350 | 11900 ± 320
PKALPY | 31000 ± 590 | 37300 ± 1400
PKGYQG | 48000 ± 2700 | 85700 ± 1400
PLQLQT | 10000 ± 190 | 24900 ± 1200
PLRQIG | 12300 ± 2000 | 33200 ± 5000
PMALMD | 15300 ± 440 | 36900 ± 3300
PMDIHA | 15300 ± 280 | 46000 ± 1400
PQGLAG | 37400 ± 1300 | 40400 ± 1100
PQPEGL | 53800 ± 2400 | 48400 ± 2200
PQPLDL | 32300 ± 2800 | 55200 ± 2700
PQPSEL | 51200 ± 2200 | 45500 ± 5000
PRGFSH | 1390 ± 1400 | 896 ± 900
PRGVKG | 58000 ± 1400 | 62100 ± 850
PRPFHH | 9900 ± 730 | 23900 ± 850
PRPQAA | 13400 ± 1100 | 17000 ± 880
PSNMEG | 92000 ± 14000 | 50100 ± 8300
PSPADI | 70600 ± 3700 | 18600 ± 1600
PTPKAL | 35900 ± 2400 | 69100 ± 1900
PVAIPM | 7030 ± 260 | 12400 ± 760
PVGMKG | 60400 ± 1200 | 64000 ± 7200
PVNMTD | 15700 ± 290 | 9420 ± 660

Substance | kcat/KM [1] | kcat/KM [2]
PYEWHS | 5850 ± 600 | 26000 ± 1200
PYGIKG | 54400 ± 2400 | 51400 ± 2200
QGPAAI | 92100 ± 1800 | 72300 ± 1400
QPLEIR | 28400 ± 1100 | 45100 ± 1200
QPPLPL | 15400 ± 1400 | 18700 ± 350
QQPQAL | 46800 ± 2300 | 70100 ± 2900
QQPSRL | 259000 ± 29000 | 94300 ± 1600
QSPINL | 31000 ± 750 | 61100 ± 2800
RMMREL | 25300 ± 650 | 9020 ± 390
RPEDLR | 21300 ± 500 | 16500 ± 1300
RRPRPL | 25000 ± 850 | 38200 ± 2100
SAAQPL | 12900 ± 340 | 11600 ± 400
SIPLPL | 15100 ± 430 | 22400 ± 340
SPMAFS | 18400 ± 250 | 11400 ± 440
SPPAAI | 79700 ± 8500 | 64400 ± 1800
SRPAEF | 98800 ± 35000 | 16400 ± 740
TAPSSQ | 141600 ± 1200 | 45100 ± 8000
TPAAMT | 107000 ± 13000 | 21100 ± 1300
TQPKAM | 54700 ± 1400 | 106000 ± 4800
TTPSPI | 115000 ± 20000 | 41000 ± 7100
VEPLKF | 18000 ± 700 | 48900 ± 1900
VHPSAV | 34300 ± 940 | 33900 ± 3000
VPQEWR | 27700 ± 1800 | 16200 ± 1600
VSALSS | 24900 ± 1200 | 7040 ± 190
WPSPFR | 36800 ± 970 | 11600 ± 180
